System: MS2 coat protein
Test: apparent KD of MS2 coat protein; designed switch direction (-1 OFF switch, 1 ON switch): -1; higher = weaker reporter binding
Procedure, shortened: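 Normalised cluster fluorescence was curve-fitted, and each design's median over clusters is its apparent KD. Before this, SNAP-549-labelled MS2 coat protein was titrated from 0.7 or 1.5 nM, doubling to 3 µM, over RNA switches transcribed on Illumina chips by stalled E. coli RNA polymerase. Titrations had no input, 200 uM small-molecule ligand, or an oligonucleotide input, and steps lasted 0.8–1.5 h (lowest) to 10–20 min (highest).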

[1] = Eterna round: R95, input ligand: microRNA oligo, concentration not stated
[2] = Eterna round: R95, input ligand: FMN 200 uM
[3] = Eterna round: R95, input ligand: none
[4] = input ligand: microRNA oligo, concentration not stated

Row | Sequence | apparent KD of MS2 coat protein [1] [nM] | apparent KD of MS2 coat protein [2] [nM] | apparent KD of MS2 coat protein [3] [nM] | apparent KD of MS2 coat protein (input ligand: FMN 200 uM) [nM] | apparent KD of MS2 coat protein [4] [nM] | apparent KD of MS2 coat protein (input ligand: none) [nM]
1 | UUCUUGGCAGGAUAUGCUUUUUUAGACAUGAGGAUCACCCAUGUGAUGAUUAUUGGUUUUGCAGAAGGGCCUUAAU [JR_E5_Sub041] (puzzle: Exclusion 5) | 49.4 | – | – | – | – | –
2 | GUAAAGGUAGGAUAUACGAAGAAAAAGGGUAGAAUAAUAACACAUGAGGAUCACCCAUGUAGAAGGACCAAAGG [Mat - Exclusion 2 - Mod of my Tesla design - D8] (puzzle: Exclusion 2) | 26.4 | 49.8 | 23.8 | – | – | –
3 | GAGGCAUGCUGAGGUCCACACAUGAGGAUCACCCAUGUAAUGACAAGCUUUUUCCUCGUCUUAUCGCUAUCGCGUUC [Dilaenla] (Eterna round: R96, puzzle: Sensor v3, turn-off variant 1) | – | – | – | 13.1 | 22.2 | 16.3
4 | AAAAUAAAAGUCAGGAUAUUCCUACAACGACUAAGGAAGAAGGGACAUGAGGAUCACCCAUGUGGUCUUCCGAA [Onesti] (puzzle: Brourd's mod of Exclusion 4) | 17.8 | 42.5 | 15.1 | – | – | –
5 | UAAGAGUGAGGAUAUACGUCGCUGGUCGGGAUGGACGCAUGACAUGAGGAUCACCCAUGUAGAAGGCACAAAAC [Enxela Mod 10 - Jieux - Exclusion 2] (Eterna round: R97, puzzle: Exclusion 2) | – | – | – | 87.6 | – | 25.4
6 | UAUAUAUAGUAAGGAUAUGUAUUAAUUUAAUAAACAGAAGGUACUGACAUGAGGAUCACCCAUGUUUUAGUGUGGGCAUGUAGA [JMF's solution 83] (Eterna round: R96, puzzle: Exclusion NG 1) | – | – | – | – | 64.3 | –
7 | AAAAAAAGACAAGAGGAGAAUCGUCUUAAAAAUCCUCAGACAUGAGGAUCACCCAUGUAAAAUGAUCGAAAGAUCAA [Mat - Sensor v2 - ver2 - JL mod - D42] (Eterna round: R96, puzzle: Sensor v2, turn-off variant 2) | – | – | – | 39.7 | 40 | 40.6
8 | AAGUACCGUCACGAUAGUGAUGGUACAGCAAGCAUGUAAACAUGAGGAUCACCCAUGUCCUCAAUUGCUCGUCUUAU [Sensor 3 - 70] (puzzle: Sensor v3, turn-off variant 2) | 785 | 725 | 764 | – | – | –
9 | AAACGGCAGGGAGGAUAUGCUUACCUGGGUCGUCUUCGAACAUGAGGAUCACCCAUGUAGUCGACGCAGAAGGCCCUCAAAGCC [JL ViennaUCT Ontiis mod 2] (Eterna round: R96, puzzle: Exclusion NG 2) | – | – | – | 47.4 | 17.1 | 21.5
10 | GACCGGACGUGGUCUGGUAACAUGAGGAUCACCCAUGUUGGUCUAAGAACAUGCCUUUUGCACGCUCGUCUUAUAUU [JR_SV3TOV1_Sub062] (puzzle: Sensor v3, turn-off variant 1) | 29.6 | 66.2 | 80.5 | – | – | –
11 | CCCAGUUAUCAAGGAUAUUGUACAUGAGGAUCACCCAUGUAAUAAAUGAGGAUUUCGGGUGUCUACAAGAAGGUGAGGAUAGGC [Ostracism 15 - Jieux - Exclusion NG 2] (Eterna round: R96, puzzle: Exclusion NG 2) | – | – | – | 26.6 | 22.4 | 46.4
12 | GGUUGGCGAGGAUAUACAUGAGGAUCACCCAUGUGGUCCUGUAAAAAAAAAAACCUUUGUAGAAGGCGCGGGUC [salish99_ex3_r4_034] (Eterna round: R97, puzzle: Exclusion 3) | – | – | – | 211 | – | 233
13 | GCCUUACAUGAGGAUCACCCAUGUCAGGAUAUGUCAGAGUAGGUAAAACACCACUCUAAUAGAAGGGACAUGCA [Diisarlais] (puzzle: Exclusion 1) | 16.5 | – | – | – | – | –
14 | UAGUUAUUCACAGGAUAUCGCCUCUUAUUACAUGAGGAUCACCCAUGUUUAGUUAGUUACAUGUUCGAGAAGGGUGUAGUUGUU [JR_ExcNG2_Sub043] (Eterna round: R96, puzzle: Exclusion NG 2) | – | – | – | – | 290 | –
15 | ACAUGUCAUUGAGGAUAUCGCACACAUGAGGAUCACCCAUGUAAACGGAUGCUCUUACGUGGGUUCGAGAAGGCGAUGUACAUU [Ex NG2 #95] (Eterna round: R96, puzzle: Exclusion NG 2) | – | – | – | 458 | 112 | 142
16 | AUUCAACAUGAGGAUCACCCAUGUGAGGAUAUGCGAGUGUAGACUUCGGUUUGAUAGAGCAGAAGGCGCAGGUA [EX1 #12] (Eterna round: R97, puzzle: Exclusion 1) | – | – | – | 35.9 | – | 33.3
17 | GCCGAAAGUGUGAGGAUAUACCUAUGGAUACAUAGGUAGAAGGCACAUGAGGAUCACCCAUGUGUCCAAACGGC [Eli bmx4 4.23] (Eterna round: R97, puzzle: Brourd's mod of Exclusion 4) | – | – | – | 54 | – | 21.7
18 | CACCGUUAGUGAGGAUAUAUUACAUGAGGAUCACCCAUGUAAUAAAUGAGAAUUUCGGAUGUAUGAUAGAAGGCACAAAUCGGC [Ostricism 52 - Jieux - Exclusion NG 2] (Eterna round: R96, puzzle: Exclusion NG 2) | – | – | – | 11.2 | 11.2 | 13.1
19 | UUUAUUAAUUAAUAUAAUAAGAUCACAUGAGGAUCACCCAUGUAGGAUAUCAGCUCGAUUAGAGCUGAGAAGGACAUAAUUAUA [ExNG3/1-B1] (Eterna round: R96, puzzle: Exclusion NG 3) | – | – | – | – | 29.2 | –
20 | GGCCUGUGAGGAUAUUAGUAGUAGAUAAAAUAAACUAUUACUGAGAAGGCACAUGAGGAUCACCCAUGUUGGCC [Eli x4 4.05] (Eterna round: R97, puzzle: Exclusion 4) | – | – | – | 20.3 | – | 16.4
21 | AGUACUAUGCGAGCUGACUUGCGUAGUGCAGCAGGUGAAACAUGAGGAUCACCCAUGUCCUCAUUUGCUCGUCUUAU [Mat - Sensor v3 - Turn-off var 2 - D2] (puzzle: Sensor v3, turn-off variant 2) | 502 | 34.3 | 33.8 | – | – | –
22 | ACAAGCUAAAUCAUAUCUUACAUGAGGAUCACCCAUGUUUUUGCAAUUAUGUUUGGCCUCCUUUGUGCUCGUCUUAU [JR_STOV1_Sub051] (Eterna round: R97, puzzle: Sensor, turn-off variant 1) | – | – | – | 16.4 | – | 16.7
23 | AAUGACUGAGGAUAUUGUACUGCUGACAUGAGGAUCACCCAUGUAUGCUAACUCGGCCGUCGAGAAGGCAGUCAUG [BotMod 24 - Jieux - Exclusion 5] (Eterna round: R97, puzzle: Exclusion 5) | – | – | – | 18.5 | – | 28
24 | UUUUAACAUGAGGAUCACCCAUGUGAGGAUAUCGAUUUUUAUAUUAAUAUUAAUAAAACGAGAAGGCACAUUUU [JMF 11] (puzzle: Exclusion 1) | 123 | – | – | – | – | –
25 | UUUUUUUUGUUUUUUGUUUACAUGAGGAUCACCCAUGUGACGAGUUUAUGGGUGAACAAGCUUUUUGCUCGUCUUAU [Sensor v3 - Turn-off variant 1 - 5] (puzzle: Sensor v3, turn-off variant 1) | 17.8 | 52.4 | 140 | – | – | –

— the supplement of paper PMC9170038
